From PMC10415143

Key:
[1] = molecular target: ALPH1ΔN (amino acids 222-734), recombinant (T. brucei); assay: SEC-MALS; 100 µl injected at 5 mg/ml on Superdex 200 Increase 10/300 GL, 15°C, 0.4 ml/min, PBS buffer
[2] = molecular target: Full length ALPH1 (amino acid 1-734), recombinant (T. brucei); assay: as above

stoichiometry N [2]	Substance	stoichiometry N [1]
–	ALPH1ΔN (amino acids 222-734), recombinant (domain or fragment)	2
2	Full length ALPH1 (amino acid 1-734), recombinant (enzyme)	–
